Measured values: article PMC6525264

Legend:
[1] = Western blot of media, sAPPβ (1A9); details: glycan lost; control: empty vector (Hyg) cell line
[2] = flow cytometry, cell surface APP, non-permeabilised cells; details: glycan lost; control: APPWT cell line

| Substance | other: proteolytic processing [1] | localisation_or_trafficking [2] |
| --- | --- | --- |
| β-Amyloid precursor protein (APP695): APPN467K | decreases | decreases |
| β-Amyloid precursor protein (APP695): APPN496K | decreases | decreases |
